Results as given in patent US20150344570A1 (published 2015).

target: T1, FcγRIa (human, UniProt P12314 16-292); assay: SPR (Biacore); Ho Ab relative to HoCon Ab = 100
T1 construct: extracellular domain; also called FcgRI; 1a
Description: Analysis of interaction between objective antibody and the FcγR was carried out using Biacore T100 (GE Healthcare). HBS-EP+ (GE Healthcare) was used as the running buffer, and the measurement temperature was set to 25° C. Chips produced by immobilizing the antigen peptide by the amine coupling method to a Series S Sencor Chip CM5 (GE Healthcare), or alternatively, chips produced by allowing preliminarily biotinylated antigen peptides to interact with and immobilize onto a Series S Sensor Chip SA (certified) (GE Healthcare) were used. Antibodies of interest were captured onto an antigen peptide-immobilized chip, and allowed to interact to each FcγR diluted with running buffer. To regenerate and repeatedly use the chip, the antibodies captured on the chip were washed off by reacting 10 mM glycine-HCl, pH 1.5.

T1 sequence (P12314 16-292): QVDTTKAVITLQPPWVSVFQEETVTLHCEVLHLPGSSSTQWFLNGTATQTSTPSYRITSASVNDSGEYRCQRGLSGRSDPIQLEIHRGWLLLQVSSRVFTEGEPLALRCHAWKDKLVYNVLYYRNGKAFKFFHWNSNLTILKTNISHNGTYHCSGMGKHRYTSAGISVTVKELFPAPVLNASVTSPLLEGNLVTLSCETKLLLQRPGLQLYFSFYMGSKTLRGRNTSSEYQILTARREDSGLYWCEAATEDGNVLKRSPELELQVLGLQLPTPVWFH

Row | Ho/Con_1a | Binder
1 | 99.9 % of control | GpH7-B3 variant E333_07I/GpL16-k0 (antibody, human IgG1, kappa, also called Ho Ab E333_07I) heavy: not shown light: DIVMTQSPLSLPVTPGEPASISCQASESLVHSNRNTYLHWYLQKPGQSPQLLIYKVSNRFSGVPDRFSGSGSGTDFTLKISRVEAEDVGVYYCSQNTHVPPTFGQGTKVEIERTVAAPSVFIFPPSDEQLKSGTASVVCLLNNFYPREAKVQWKVDNALQSGNSQESVTEQDSKDSTYSLSSTLTLSKADYEKHKVYACEVTHQGLSSPVTKSFNRGEC
2 | 103 % of control | GpH7-B3 variant E333_09D/GpL16-k0 (antibody, human IgG1, kappa, also called Ho Ab E333_09D) heavy: not shown light: DIVMTQSPLSLPVTPGEPASISCQASESLVHSNRNTYLHWYLQKPGQSPQLLIYKVSNRFSGVPDRFSGSGSGTDFTLKISRVEAEDVGVYYCSQNTHVPPTFGQGTKVEIERTVAAPSVFIFPPSDEQLKSGTASVVCLLNNFYPREAKVQWKVDNALQSGNSQESVTEQDSKDSTYSLSSTLTLSKADYEKHKVYACEVTHQGLSSPVTKSFNRGEC
3 | 99 % of control | GpH7-B3 variant E333_08L/GpL16-k0 (antibody, human IgG1, kappa, also called Ho Ab E333_08L) heavy: not shown light: DIVMTQSPLSLPVTPGEPASISCQASESLVHSNRNTYLHWYLQKPGQSPQLLIYKVSNRFSGVPDRFSGSGSGTDFTLKISRVEAEDVGVYYCSQNTHVPPTFGQGTKVEIERTVAAPSVFIFPPSDEQLKSGTASVVCLLNNFYPREAKVQWKVDNALQSGNSQESVTEQDSKDSTYSLSSTLTLSKADYEKHKVYACEVTHQGLSSPVTKSFNRGEC
4 | 100 % of control | GpH7-B3 variant E333_01G/GpL16-k0 (antibody, human IgG1, kappa, also called Ho Ab E333_01G) heavy: not shown light: DIVMTQSPLSLPVTPGEPASISCQASESLVHSNRNTYLHWYLQKPGQSPQLLIYKVSNRFSGVPDRFSGSGSGTDFTLKISRVEAEDVGVYYCSQNTHVPPTFGQGTKVEIERTVAAPSVFIFPPSDEQLKSGTASVVCLLNNFYPREAKVQWKVDNALQSGNSQESVTEQDSKDSTYSLSSTLTLSKADYEKHKVYACEVTHQGLSSPVTKSFNRGEC
5 | 96.2 % of control | GpH7-B3 variant E333_02A/GpL16-k0 (antibody, human IgG1, kappa, also called Ho Ab E333_02A) heavy: not shown light: DIVMTQSPLSLPVTPGEPASISCQASESLVHSNRNTYLHWYLQKPGQSPQLLIYKVSNRFSGVPDRFSGSGSGTDFTLKISRVEAEDVGVYYCSQNTHVPPTFGQGTKVEIERTVAAPSVFIFPPSDEQLKSGTASVVCLLNNFYPREAKVQWKVDNALQSGNSQESVTEQDSKDSTYSLSSTLTLSKADYEKHKVYACEVTHQGLSSPVTKSFNRGEC
6 | 99.6 % of control | GpH7-B3 variant E269_19Q/GpL16-k0 (antibody, human IgG1, kappa, also called Ho Ab E269_19Q) heavy: not shown light: DIVMTQSPLSLPVTPGEPASISCQASESLVHSNRNTYLHWYLQKPGQSPQLLIYKVSNRFSGVPDRFSGSGSGTDFTLKISRVEAEDVGVYYCSQNTHVPPTFGQGTKVEIERTVAAPSVFIFPPSDEQLKSGTASVVCLLNNFYPREAKVQWKVDNALQSGNSQESVTEQDSKDSTYSLSSTLTLSKADYEKHKVYACEVTHQGLSSPVTKSFNRGEC
7 | 98.7 % of control | GpH7-B3 variant E333_14T/GpL16-k0 (antibody, human IgG1, kappa, also called Ho Ab E333_14T) heavy: not shown light: DIVMTQSPLSLPVTPGEPASISCQASESLVHSNRNTYLHWYLQKPGQSPQLLIYKVSNRFSGVPDRFSGSGSGTDFTLKISRVEAEDVGVYYCSQNTHVPPTFGQGTKVEIERTVAAPSVFIFPPSDEQLKSGTASVVCLLNNFYPREAKVQWKVDNALQSGNSQESVTEQDSKDSTYSLSSTLTLSKADYEKHKVYACEVTHQGLSSPVTKSFNRGEC
8 | 98.4 % of control | GpH7-B3 variant E333_03V/GpL16-k0 (antibody, human IgG1, kappa, also called Ho Ab E333_03V) heavy: not shown light: DIVMTQSPLSLPVTPGEPASISCQASESLVHSNRNTYLHWYLQKPGQSPQLLIYKVSNRFSGVPDRFSGSGSGTDFTLKISRVEAEDVGVYYCSQNTHVPPTFGQGTKVEIERTVAAPSVFIFPPSDEQLKSGTASVVCLLNNFYPREAKVQWKVDNALQSGNSQESVTEQDSKDSTYSLSSTLTLSKADYEKHKVYACEVTHQGLSSPVTKSFNRGEC
9 | 104 % of control | GpH7-B3 variant G236_20W/GpL16-k0 (antibody, human IgG1, kappa, also called Ho Ab G236_20W) heavy: not shown light: DIVMTQSPLSLPVTPGEPASISCQASESLVHSNRNTYLHWYLQKPGQSPQLLIYKVSNRFSGVPDRFSGSGSGTDFTLKISRVEAEDVGVYYCSQNTHVPPTFGQGTKVEIERTVAAPSVFIFPPSDEQLKSGTASVVCLLNNFYPREAKVQWKVDNALQSGNSQESVTEQDSKDSTYSLSSTLTLSKADYEKHKVYACEVTHQGLSSPVTKSFNRGEC

More lines, now with the values behind:

Row | Binder | Ho/Con_1a
10 | GpH7-B3 variant E269_18N/GpL16-k0 (antibody, human IgG1, kappa, also called Ho Ab E269_18N) heavy: not shown light: DIVMTQSPLSLPVTPGEPASISCQASESLVHSNRNTYLHWYLQKPGQSPQLLIYKVSNRFSGVPDRFSGSGSGTDFTLKISRVEAEDVGVYYCSQNTHVPPTFGQGTKVEIERTVAAPSVFIFPPSDEQLKSGTASVVCLLNNFYPREAKVQWKVDNALQSGNSQESVTEQDSKDSTYSLSSTLTLSKADYEKHKVYACEVTHQGLSSPVTKSFNRGEC | 92.7 % of control
11 | GpH7-B3 variant E333_15Y/GpL16-k0 (antibody, human IgG1, kappa, also called Ho Ab E333_15Y) heavy: not shown light: DIVMTQSPLSLPVTPGEPASISCQASESLVHSNRNTYLHWYLQKPGQSPQLLIYKVSNRFSGVPDRFSGSGSGTDFTLKISRVEAEDVGVYYCSQNTHVPPTFGQGTKVEIERTVAAPSVFIFPPSDEQLKSGTASVVCLLNNFYPREAKVQWKVDNALQSGNSQESVTEQDSKDSTYSLSSTLTLSKADYEKHKVYACEVTHQGLSSPVTKSFNRGEC | 100 % of control
12 | GpH7-B3 variant G236_02A/GpL16-k0 (antibody, human IgG1, kappa, also called Ho Ab G236_02A) heavy: not shown light: DIVMTQSPLSLPVTPGEPASISCQASESLVHSNRNTYLHWYLQKPGQSPQLLIYKVSNRFSGVPDRFSGSGSGTDFTLKISRVEAEDVGVYYCSQNTHVPPTFGQGTKVEIERTVAAPSVFIFPPSDEQLKSGTASVVCLLNNFYPREAKVQWKVDNALQSGNSQESVTEQDSKDSTYSLSSTLTLSKADYEKHKVYACEVTHQGLSSPVTKSFNRGEC | 92.4 % of control
13 | GpH7-B3 variant E333_05P/GpL16-k0 (antibody, human IgG1, kappa, also called Ho Ab E333_05P) heavy: not shown light: DIVMTQSPLSLPVTPGEPASISCQASESLVHSNRNTYLHWYLQKPGQSPQLLIYKVSNRFSGVPDRFSGSGSGTDFTLKISRVEAEDVGVYYCSQNTHVPPTFGQGTKVEIERTVAAPSVFIFPPSDEQLKSGTASVVCLLNNFYPREAKVQWKVDNALQSGNSQESVTEQDSKDSTYSLSSTLTLSKADYEKHKVYACEVTHQGLSSPVTKSFNRGEC | 99.2 % of control
14 | GpH7-B3 variant E333_16H/GpL16-k0 (antibody, human IgG1, kappa, also called Ho Ab E333_16H) heavy: not shown light: DIVMTQSPLSLPVTPGEPASISCQASESLVHSNRNTYLHWYLQKPGQSPQLLIYKVSNRFSGVPDRFSGSGSGTDFTLKISRVEAEDVGVYYCSQNTHVPPTFGQGTKVEIERTVAAPSVFIFPPSDEQLKSGTASVVCLLNNFYPREAKVQWKVDNALQSGNSQESVTEQDSKDSTYSLSSTLTLSKADYEKHKVYACEVTHQGLSSPVTKSFNRGEC | 99.1 % of control
15 | GpH7-B3 variant H268_02A/GpL16-k0 (antibody, human IgG1, kappa, also called Ho Ab H268_02A) heavy: not shown light: DIVMTQSPLSLPVTPGEPASISCQASESLVHSNRNTYLHWYLQKPGQSPQLLIYKVSNRFSGVPDRFSGSGSGTDFTLKISRVEAEDVGVYYCSQNTHVPPTFGQGTKVEIERTVAAPSVFIFPPSDEQLKSGTASVVCLLNNFYPREAKVQWKVDNALQSGNSQESVTEQDSKDSTYSLSSTLTLSKADYEKHKVYACEVTHQGLSSPVTKSFNRGEC | 106 % of control
16 | GpH7-B3 variant E333_06M/GpL16-k0 (antibody, human IgG1, kappa, also called Ho Ab E333_06M) heavy: not shown light: DIVMTQSPLSLPVTPGEPASISCQASESLVHSNRNTYLHWYLQKPGQSPQLLIYKVSNRFSGVPDRFSGSGSGTDFTLKISRVEAEDVGVYYCSQNTHVPPTFGQGTKVEIERTVAAPSVFIFPPSDEQLKSGTASVVCLLNNFYPREAKVQWKVDNALQSGNSQESVTEQDSKDSTYSLSSTLTLSKADYEKHKVYACEVTHQGLSSPVTKSFNRGEC | 99.5 % of control
17 | GpH7-B3 variant E333_13S/GpL16-k0 (antibody, human IgG1, kappa, also called Ho Ab E333_13S) heavy: not shown light: DIVMTQSPLSLPVTPGEPASISCQASESLVHSNRNTYLHWYLQKPGQSPQLLIYKVSNRFSGVPDRFSGSGSGTDFTLKISRVEAEDVGVYYCSQNTHVPPTFGQGTKVEIERTVAAPSVFIFPPSDEQLKSGTASVVCLLNNFYPREAKVQWKVDNALQSGNSQESVTEQDSKDSTYSLSSTLTLSKADYEKHKVYACEVTHQGLSSPVTKSFNRGEC | 101 % of control
18 | GpH7-B3 variant E333_04F/GpL16-k0 (antibody, human IgG1, kappa, also called Ho Ab E333_04F) heavy: not shown light: DIVMTQSPLSLPVTPGEPASISCQASESLVHSNRNTYLHWYLQKPGQSPQLLIYKVSNRFSGVPDRFSGSGSGTDFTLKISRVEAEDVGVYYCSQNTHVPPTFGQGTKVEIERTVAAPSVFIFPPSDEQLKSGTASVVCLLNNFYPREAKVQWKVDNALQSGNSQESVTEQDSKDSTYSLSSTLTLSKADYEKHKVYACEVTHQGLSSPVTKSFNRGEC | 98.4 % of control
19 | GpH7-B3 variant E333_12R/GpL16-k0 (antibody, human IgG1, kappa, also called Ho Ab E333_12R) heavy: not shown light: DIVMTQSPLSLPVTPGEPASISCQASESLVHSNRNTYLHWYLQKPGQSPQLLIYKVSNRFSGVPDRFSGSGSGTDFTLKISRVEAEDVGVYYCSQNTHVPPTFGQGTKVEIERTVAAPSVFIFPPSDEQLKSGTASVVCLLNNFYPREAKVQWKVDNALQSGNSQESVTEQDSKDSTYSLSSTLTLSKADYEKHKVYACEVTHQGLSSPVTKSFNRGEC | 94.2 % of control
20 | GpH7-B3 variant E333_11K/GpL16-k0 (antibody, human IgG1, kappa, also called Ho Ab E333_11K) heavy: not shown light: DIVMTQSPLSLPVTPGEPASISCQASESLVHSNRNTYLHWYLQKPGQSPQLLIYKVSNRFSGVPDRFSGSGSGTDFTLKISRVEAEDVGVYYCSQNTHVPPTFGQGTKVEIERTVAAPSVFIFPPSDEQLKSGTASVVCLLNNFYPREAKVQWKVDNALQSGNSQESVTEQDSKDSTYSLSSTLTLSKADYEKHKVYACEVTHQGLSSPVTKSFNRGEC | 95.8 % of control
21 | GpH7-B3 variant E269_20W/GpL16-k0 (antibody, human IgG1, kappa, also called Ho Ab E269_20W) heavy: not shown light: DIVMTQSPLSLPVTPGEPASISCQASESLVHSNRNTYLHWYLQKPGQSPQLLIYKVSNRFSGVPDRFSGSGSGTDFTLKISRVEAEDVGVYYCSQNTHVPPTFGQGTKVEIERTVAAPSVFIFPPSDEQLKSGTASVVCLLNNFYPREAKVQWKVDNALQSGNSQESVTEQDSKDSTYSLSSTLTLSKADYEKHKVYACEVTHQGLSSPVTKSFNRGEC | 98.9 % of control
